Data from the supplement of paper PMC10065799, “High-throughput profiling of sequence recognition by tyrosine kinases and SH2 domains using bacterial peptide display” (eLife, 2023).

Assays:
FGFR1 = FGFR1 (UniProt P11362); test: phosphorylation enrichment, bacterial display (enrichment ratio); higher = better substrate or ligand; peptides without Tyr show the background
MERTK = MERTK (UniProt Q12866); test: as above
Fyn = Fyn (UniProt P06241); test: as above
AncSZ = test: as above
c-Src = test: as above
Jak2 = Jak2 (UniProt O60674); test: as above
EPHB1 = EPHB1 (UniProt P54762); test: as above
Fer (mouse) = test: as above
Fes = Fes (UniProt P07332); test: as above
Hck = Hck (UniProt P08631); test: as above
FGFR3 = FGFR3 (UniProt P22607); test: as above
c-Abl (mouse) = test: as above
EPHB2 = EPHB2 (UniProt P29323); test: as above
SHP2-C SH2 = test: SH2 binding enrichment of the phosphorylated peptide, bacterial display (enrichment ratio); higher = better substrate or ligand; peptides without Tyr show the background
Grb2 SH2 = Grb2 SH2 (UniProt P62993); test: as above
c-Src SH2 = test: as above
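For SH2 binding enrichment of the phosphorylated peptide, bacterial display in this document: peptide library displayed on the E. coli surface as eCPX fusions, selected cells deep-sequenced, score is each peptide's frequency after selection divided by its frequency in the input.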
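For phosphorylation enrichment, bacterial display in this document: 11-residue human phosphosite peptides and single-mutation variants displayed on the E. coli surface, counted by deep sequencing, each peptide's frequency after selection divided by its frequency in the unselected input library; frequency after pTyr selection over input frequency; kinase dosed for 20-30% of maximal phosphorylation in three min.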

Fes, sequence (P07332 whole entry, looked up): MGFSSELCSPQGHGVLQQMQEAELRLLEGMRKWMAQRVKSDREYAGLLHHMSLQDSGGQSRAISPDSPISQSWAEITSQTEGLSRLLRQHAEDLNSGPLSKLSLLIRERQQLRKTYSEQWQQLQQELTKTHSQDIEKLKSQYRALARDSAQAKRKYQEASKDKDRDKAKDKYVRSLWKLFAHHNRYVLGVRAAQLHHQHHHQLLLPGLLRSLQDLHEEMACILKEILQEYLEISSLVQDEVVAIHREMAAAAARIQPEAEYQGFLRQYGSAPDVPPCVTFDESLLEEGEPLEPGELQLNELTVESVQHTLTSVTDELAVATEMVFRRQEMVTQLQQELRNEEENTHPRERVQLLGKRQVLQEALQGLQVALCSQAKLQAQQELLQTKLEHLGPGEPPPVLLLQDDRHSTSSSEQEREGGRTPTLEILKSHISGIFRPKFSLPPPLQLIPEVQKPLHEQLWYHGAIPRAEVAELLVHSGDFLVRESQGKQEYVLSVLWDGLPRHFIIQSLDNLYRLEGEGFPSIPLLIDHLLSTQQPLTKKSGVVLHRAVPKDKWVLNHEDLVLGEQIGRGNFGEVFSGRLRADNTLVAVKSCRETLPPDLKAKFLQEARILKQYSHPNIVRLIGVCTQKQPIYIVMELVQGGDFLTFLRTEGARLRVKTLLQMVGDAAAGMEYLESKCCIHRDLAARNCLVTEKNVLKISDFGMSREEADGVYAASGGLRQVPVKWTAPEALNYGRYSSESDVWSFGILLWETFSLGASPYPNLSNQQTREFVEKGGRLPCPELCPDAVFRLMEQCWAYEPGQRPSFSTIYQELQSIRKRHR
Jak2, sequence (O60674 whole entry, looked up): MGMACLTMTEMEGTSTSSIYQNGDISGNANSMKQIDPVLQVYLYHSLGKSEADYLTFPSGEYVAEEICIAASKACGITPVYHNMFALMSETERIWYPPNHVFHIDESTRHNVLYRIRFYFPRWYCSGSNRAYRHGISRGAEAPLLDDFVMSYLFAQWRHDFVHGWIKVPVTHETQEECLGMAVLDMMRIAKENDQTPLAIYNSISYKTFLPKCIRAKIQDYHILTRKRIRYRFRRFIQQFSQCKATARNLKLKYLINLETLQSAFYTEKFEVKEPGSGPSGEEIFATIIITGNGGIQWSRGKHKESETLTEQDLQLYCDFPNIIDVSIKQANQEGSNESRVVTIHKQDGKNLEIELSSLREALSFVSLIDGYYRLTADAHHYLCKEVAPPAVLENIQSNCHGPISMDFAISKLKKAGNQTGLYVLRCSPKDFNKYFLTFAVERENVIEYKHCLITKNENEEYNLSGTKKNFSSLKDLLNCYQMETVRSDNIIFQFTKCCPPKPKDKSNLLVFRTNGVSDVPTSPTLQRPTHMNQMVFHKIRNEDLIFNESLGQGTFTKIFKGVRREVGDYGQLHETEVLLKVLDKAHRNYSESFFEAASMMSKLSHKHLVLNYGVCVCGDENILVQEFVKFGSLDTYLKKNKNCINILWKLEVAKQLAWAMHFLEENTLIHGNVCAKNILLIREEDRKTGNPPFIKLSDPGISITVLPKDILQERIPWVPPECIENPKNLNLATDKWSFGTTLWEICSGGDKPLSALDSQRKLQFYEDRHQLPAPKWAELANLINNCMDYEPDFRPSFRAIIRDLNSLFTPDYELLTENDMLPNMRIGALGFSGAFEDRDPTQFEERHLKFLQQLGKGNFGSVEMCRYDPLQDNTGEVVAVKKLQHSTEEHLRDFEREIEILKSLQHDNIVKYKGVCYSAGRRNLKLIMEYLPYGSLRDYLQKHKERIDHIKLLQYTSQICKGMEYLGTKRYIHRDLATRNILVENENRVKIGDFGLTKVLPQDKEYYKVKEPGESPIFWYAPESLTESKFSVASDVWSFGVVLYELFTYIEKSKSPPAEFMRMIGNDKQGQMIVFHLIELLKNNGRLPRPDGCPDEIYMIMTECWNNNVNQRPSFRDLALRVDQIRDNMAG
Hck, sequence (P08631 whole entry, looked up): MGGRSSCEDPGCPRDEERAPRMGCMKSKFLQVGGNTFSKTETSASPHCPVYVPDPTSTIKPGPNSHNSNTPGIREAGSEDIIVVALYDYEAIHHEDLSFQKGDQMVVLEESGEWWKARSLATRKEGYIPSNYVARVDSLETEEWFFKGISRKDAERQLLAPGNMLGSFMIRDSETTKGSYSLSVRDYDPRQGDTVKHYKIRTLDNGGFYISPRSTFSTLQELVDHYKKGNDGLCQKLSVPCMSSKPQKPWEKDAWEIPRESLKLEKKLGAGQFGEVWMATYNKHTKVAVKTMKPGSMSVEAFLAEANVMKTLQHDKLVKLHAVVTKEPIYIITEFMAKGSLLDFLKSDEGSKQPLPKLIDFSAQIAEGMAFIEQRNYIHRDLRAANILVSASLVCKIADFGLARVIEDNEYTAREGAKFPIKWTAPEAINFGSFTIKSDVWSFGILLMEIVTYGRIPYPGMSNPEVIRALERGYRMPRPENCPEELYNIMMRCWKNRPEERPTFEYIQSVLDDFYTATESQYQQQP
FGFR1, sequence (P11362 whole entry, looked up): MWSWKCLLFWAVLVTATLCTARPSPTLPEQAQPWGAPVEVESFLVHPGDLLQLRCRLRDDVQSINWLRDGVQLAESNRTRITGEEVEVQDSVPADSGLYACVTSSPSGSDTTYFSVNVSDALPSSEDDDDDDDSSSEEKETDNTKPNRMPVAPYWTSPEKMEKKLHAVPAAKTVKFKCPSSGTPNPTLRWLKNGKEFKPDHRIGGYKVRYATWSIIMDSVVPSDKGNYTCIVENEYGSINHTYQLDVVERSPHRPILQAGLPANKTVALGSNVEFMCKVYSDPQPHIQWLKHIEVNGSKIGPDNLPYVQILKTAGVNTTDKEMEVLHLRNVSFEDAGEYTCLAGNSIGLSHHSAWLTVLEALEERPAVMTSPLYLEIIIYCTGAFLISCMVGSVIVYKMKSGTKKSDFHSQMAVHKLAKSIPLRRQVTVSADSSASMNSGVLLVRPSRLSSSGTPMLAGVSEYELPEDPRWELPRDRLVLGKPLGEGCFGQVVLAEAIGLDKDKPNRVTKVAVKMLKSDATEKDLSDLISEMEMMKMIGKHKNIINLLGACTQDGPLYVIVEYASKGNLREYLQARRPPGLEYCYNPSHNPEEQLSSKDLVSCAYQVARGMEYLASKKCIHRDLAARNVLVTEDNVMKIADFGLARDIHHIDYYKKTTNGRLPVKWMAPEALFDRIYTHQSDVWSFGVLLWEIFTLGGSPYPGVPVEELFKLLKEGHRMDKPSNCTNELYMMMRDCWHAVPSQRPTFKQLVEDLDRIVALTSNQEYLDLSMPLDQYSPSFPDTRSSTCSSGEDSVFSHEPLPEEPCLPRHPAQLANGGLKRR
Fyn, sequence (P06241 whole entry, looked up): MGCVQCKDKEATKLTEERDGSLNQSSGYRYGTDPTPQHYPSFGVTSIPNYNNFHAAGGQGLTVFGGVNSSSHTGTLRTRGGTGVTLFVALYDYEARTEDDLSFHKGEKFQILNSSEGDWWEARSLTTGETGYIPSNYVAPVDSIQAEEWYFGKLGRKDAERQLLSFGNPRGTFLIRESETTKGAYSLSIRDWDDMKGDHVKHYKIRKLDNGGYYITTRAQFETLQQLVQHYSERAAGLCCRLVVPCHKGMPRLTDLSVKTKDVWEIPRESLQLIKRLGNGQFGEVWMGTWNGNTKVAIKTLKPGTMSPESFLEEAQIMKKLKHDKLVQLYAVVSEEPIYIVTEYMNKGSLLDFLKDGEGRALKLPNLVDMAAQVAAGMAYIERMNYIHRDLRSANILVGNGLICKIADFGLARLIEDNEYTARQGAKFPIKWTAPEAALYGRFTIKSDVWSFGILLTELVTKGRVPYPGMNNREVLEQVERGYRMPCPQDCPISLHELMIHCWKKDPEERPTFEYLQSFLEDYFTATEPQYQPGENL
MERTK, sequence (Q12866 whole entry, looked up): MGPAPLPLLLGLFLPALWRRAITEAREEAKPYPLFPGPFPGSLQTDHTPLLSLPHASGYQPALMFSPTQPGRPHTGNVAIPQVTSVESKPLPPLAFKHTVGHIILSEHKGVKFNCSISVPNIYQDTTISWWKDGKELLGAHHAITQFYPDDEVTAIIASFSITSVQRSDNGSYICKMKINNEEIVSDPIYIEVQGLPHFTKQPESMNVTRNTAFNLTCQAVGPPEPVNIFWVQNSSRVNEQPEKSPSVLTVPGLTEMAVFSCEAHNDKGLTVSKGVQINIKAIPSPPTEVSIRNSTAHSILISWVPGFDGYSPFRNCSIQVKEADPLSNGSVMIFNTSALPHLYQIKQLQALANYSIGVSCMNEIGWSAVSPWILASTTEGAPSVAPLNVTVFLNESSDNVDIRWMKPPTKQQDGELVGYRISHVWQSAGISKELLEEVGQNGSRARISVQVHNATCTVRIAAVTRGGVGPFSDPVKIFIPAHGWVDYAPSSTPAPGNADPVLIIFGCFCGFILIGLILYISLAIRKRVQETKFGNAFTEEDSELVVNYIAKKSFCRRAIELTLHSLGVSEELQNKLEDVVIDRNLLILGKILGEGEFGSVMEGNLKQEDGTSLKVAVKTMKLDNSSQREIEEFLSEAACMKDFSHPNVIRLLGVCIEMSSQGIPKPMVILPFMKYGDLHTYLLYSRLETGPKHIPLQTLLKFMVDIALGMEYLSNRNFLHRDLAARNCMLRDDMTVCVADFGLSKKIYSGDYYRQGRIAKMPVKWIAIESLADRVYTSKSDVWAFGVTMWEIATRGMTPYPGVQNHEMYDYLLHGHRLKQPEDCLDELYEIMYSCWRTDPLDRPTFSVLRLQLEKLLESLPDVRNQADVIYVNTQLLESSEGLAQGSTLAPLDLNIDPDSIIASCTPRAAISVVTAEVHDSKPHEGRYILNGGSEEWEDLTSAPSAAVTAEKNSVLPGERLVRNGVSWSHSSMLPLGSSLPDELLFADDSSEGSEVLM

Row | SH2 binding enrichment (SHP2-C SH2) | SH2 binding enrichment (Grb2 SH2) | SH2 binding enrichment (c-Src SH2) | Sequence | phosphorylation enrichment (FGFR1) | phosphorylation enrichment (MERTK) | phosphorylation enrichment (Fyn) | phosphorylation enrichment (AncSZ) | phosphorylation enrichment (c-Src) | phosphorylation enrichment (Jak2) | phosphorylation enrichment (EPHB1) | phosphorylation enrichment (Fer (mouse)) | phosphorylation enrichment (Fes) | phosphorylation enrichment (Hck) | phosphorylation enrichment (FGFR3) | phosphorylation enrichment (c-Abl (mouse)) | phosphorylation enrichment (EPHB2)
1 | 0.693 | 0.89 | 0.662 | GTPVMYTFDEF [COL10A1_Y623_YF] | 0.504 | 1.03 | 0.733 | 1.03 | 0.668 | 1.16 | 0.621 | 0.473 | 1.16 | 0.474 | 0.806 | 0.767 | 0.611
2 | 0.782 | 1.1 | 0.533 | GTYVIYVRFGG [FLNB_Y1687] | 0.511 | 0.498 | 0.62 | 1.22 | 0.752 | 1.04 | 0.604 | 0.516 | 1.32 | 0.597 | 0.736 | 0.868 | 0.696
3 | 0.784 | 0.839 | 0.427 | GVLDIYGFDIL [MYO1A_Y382_E385D] | 0.448 | 0.465 | 3.78 | 0.978 | 2.69 | 0.955 | 0.67 | 0.524 | 1.07 | 2.12 | 0.621 | 0.69 | 0.566
4 | 0.559 | 0.963 | 0.29 | GVLKEYGGKVL [CPS1_Y529_V531G] | 0.361 | 0.374 | 0.364 | 0.588 | 0.396 | 0.537 | 0.393 | 0.354 | 0.686 | 0.403 | 0.415 | 0.546 | 0.343

The remaining lines, values behind:

Row | Sequence | SH2 binding enrichment (SHP2-C SH2) | SH2 binding enrichment (Grb2 SH2) | SH2 binding enrichment (c-Src SH2) | phosphorylation enrichment (FGFR1) | phosphorylation enrichment (MERTK) | phosphorylation enrichment (Fyn) | phosphorylation enrichment (AncSZ) | phosphorylation enrichment (c-Src) | phosphorylation enrichment (Jak2) | phosphorylation enrichment (EPHB1) | phosphorylation enrichment (Fer (mouse)) | phosphorylation enrichment (Fes) | phosphorylation enrichment (Hck) | phosphorylation enrichment (FGFR3) | phosphorylation enrichment (c-Abl (mouse)) | phosphorylation enrichment (EPHB2)
5 | GVCKNYAEAKD [ALB_Y343_D338G] | 0.705 | 0.886 | 0.825 | 0.551 | 0.385 | 0.371 | 0.749 | 0.392 | 0.556 | 0.469 | 0.359 | 0.729 | 0.498 | 0.585 | 0.6 | 0.511
6 | GVMLLYFGRFN [ADGRD1_Y85_T82M_YF] | 1.25 | 0.956 | 0.746 | 0.53 | 0.393 | 0.441 | 1.4 | 0.343 | 1.15 | 0.529 | 0.508 | 1.26 | 0.531 | 0.705 | 0.65 | 0.528
7 | GVTLLYYGRDN [ADGRD1_Y85_Y89D] | 1.04 | 1.13 | 0.807 | 0.543 | 0.841 | 0.545 | 0.923 | 0.816 | 1.39 | 0.605 | 0.408 | 1.01 | 1.01 | 0.685 | 0.894 | 0.629
8 | GVTLLYYGRYN [ADGRD1_Y85] | 1.24 | 1.28 | 1.05 | 0.611 | 0.728 | 2.77 | 1.5 | 3.17 | 1.85 | 0.808 | 0.577 | 1.31 | 2.13 | 0.826 | 0.852 | 0.92
